T1: recombinant human CD123-Fc (human, UniProt P26951 19-305)
T1 construct: not shown: Fc part of CD123-Fc
T1 sequence: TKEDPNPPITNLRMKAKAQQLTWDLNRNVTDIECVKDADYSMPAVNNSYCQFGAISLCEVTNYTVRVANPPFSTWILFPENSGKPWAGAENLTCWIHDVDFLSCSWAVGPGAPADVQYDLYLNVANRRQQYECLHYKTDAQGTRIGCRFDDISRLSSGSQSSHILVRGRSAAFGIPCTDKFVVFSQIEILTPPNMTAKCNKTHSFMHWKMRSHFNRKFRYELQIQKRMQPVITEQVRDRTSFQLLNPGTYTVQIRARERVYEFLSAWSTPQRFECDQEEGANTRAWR

B1: SEQ ID NO 665 (designed binder)
chain: MGSWYEFEDRLDAILYRLLALGGSEAELAWFERDIAFFESELQWYKGKGNPEVEALEWEAMAIDDELFAYRHN
B2: SEQ ID NO 660 (designed binder)
chain: MGSWHEFDDRLDAIMSRLDALGGSEAELATFEAEIATFEFVLQLYKGKGNPEVEALLAEAYAIDWELEAYRHN
B3: SEQ ID NO 655 (designed binder)
chain: MGSWEEFDERLWAISDRLWALGGSEAELAYFEGEIAYFEQNLQTYKGKGNPEVEALQTEALAIDTELWAYRHN
B4: SEQ ID NO 641 (designed binder)
chain: MGSWWEFYDRLTAIEARLWALGGSEAELADFEEGIADFEYDLQDYKGKGNPEVEALFWEAWAIQSELTAYRHN
B5: SEQ ID NO 671 (designed binder)
chain: MGSWDEFSERLDAIWGRLEALGGSEAELATFEFHIAEFEHELQYYKGKGNPEVEALQGEAAAIINELYAYRHN
B6: SEQ ID NO 648 (designed binder)
chain: MGSWDEFEERLQAIEYRLWALGGSEAELAWFEEVIAQFEYDLQKYKGKGNPEVEALSTEAQAIQDELWAYRHN
B7: SEQ ID NO 664 (designed binder)
chain: MGSWYEFESRLDAIVDRLWALGGSEAELAEFEYEIAKFEWELQDYKGKGNPEVEALNWEAGAIEFELYAYRHN
B8: SEQ ID NO 638 (designed binder)
chain: MGSWWEFEDRLWAIDRRLMALGGSEAELAVFEQMIAHFEQILQVYKGKGNPEVEALHFEAHAIGMELAAYRHN
B9: SEQ ID NO 636 (designed binder)
chain: MGSWFEFQWRLEAIEDRLWALGGSEAELAEFETIIAGFEEQLQVYKGKGNPEVEALEEEAMAIQTELHAYRHN
B10: SEQ ID NO 661 (designed binder)
chain: MGSWYEFFDRLDAIYDRLYALGGSEAELASFEAQIAEFEVELQSYKGKGNPEVEALEWEAWAIDEELYAYRHN
B11: SEQ ID NO 659 (designed binder)
chain: MGSWDEFDTRLDAIFSRLYALGGSEAELAMFEGEIAEFEGSLQHYKGKGNPEVEALDFEAHAIDEELWAYRHN
B12: SEQ ID NO 649 (designed binder)
chain: MGSWWEFTDRLDAIFDRLWALGGSEAELAAFEESIAIFEQDLQYYKGKGNPEVEALEYEANAIQYELEAYRHN
B13: SEQ ID NO 658 (designed binder)
chain: MGSWVEFEYRLDAISDRLWALGGSEAELAFFENEIASFESDLQFYKGKGNPEVEALMFEAEAIDDELHAYRHN
B14: SEQ ID NO 651 (designed binder)
chain: MGSWVEFFWRLDAIEDRLWALGGSEAELANFEFEIADFEAWLQKYKGKGNPEVEALHSEADAIQLELRAYRHN
B15: SEQ ID NO 646 (designed binder)
chain: MGSWFEFEERLEAIIYRLWALGGSEAELAMFEESIAWFESDLQQYKGKGNPEVEALEYEAMAISKELKAYRHN
B16: SEQ ID NO 674 (designed binder)
chain: MGSWEEFTIRLGAIYWRLFALGGSEAELANFEWFIAEFEYELQPYKGKGNPEVEALVIEANAIDGELQAYRHN
B17: SEQ ID NO 662 (designed binder)
chain: MGSWFEFLYRLDAIEDRLWALGGSEAELAEFEQEIAKFESELQSYKGKGNPEVEALEWEAHAIDMELEAYRHN
B18: SEQ ID NO 653 (designed binder)
chain: MGSWEEFYYRLHAIDNRLWALGGSEAELAYFEWHIADFELELQDYKGKGNPEVEALSEEATAIFEELWAYRHN
B19: SEQ ID NO 654 (designed binder)
chain: MGSWREFHDRLFAIDGRLWALGGSEAELANFEWDIADFEFELQDYKGKGNPEVEALSWEADAIMQELGAYRHN
B20: SEQ ID NO 666 (designed binder)
chain: MGSWGEFMDRLEAIDYRLWALGGSEAELAWFESDIAEFEQELQMYKGKGNPEVEALWDEAMAIRDELFAYRHN
B21: SEQ ID NO 639 (designed binder)
chain: MGSWWEFLDRLEAIEYRLQALGGSEAELAVFEWEIAMFEDHLQGYKGKGNPEVEALHSEAHAIISELSAYRHN
B22: SEQ ID NO 640 (designed binder)
chain: MGSWAEFEDRLAAIERRLEALGGSEAELADFESSIAWFEPDLQYYKGKGNPEVEALMYEAEAIFSELYAYRHN
B23: SEQ ID NO 637 (designed binder)
chain: MGSWWEFEDRLWAIEQRLDALGGSEAELAVFENSIAKFEDMLQVYKGKGNPEVEALHEEADAIIWELYAYRHN
B24: SEQ ID NO 670 (designed binder)
chain: MGSWYEFDARLDAIEERLYALGGSEAELAAFEFEIAGFEEALQWYKGKGNPEVEALLKEAEAITDELYAYRHN
B25: SEQ ID NO 669 (designed binder)
chain: MGSWNEFWERLDAIEWRLFALGGSEAELAFFELDIAWFEEELQWYKGKGNPEVEALIFEAHAITLELDAYRHN
B26: SEQ ID NO 650 (designed binder)
chain: MGSWWEFTDRLEAIEDRLWALGGSEAELAHFEDSIAQFEQELQWYKGKGNPEVEALADEADAIESELHAYRHN
B27: SEQ ID NO 663 (designed binder)
chain: MGSWLEFEDRLVAIDHRLFALGGSEAELAEFEEEIALFESYLQDYKGKGNPEVEALNWEADAIHAELYAYRHN
B28: SEQ ID NO 656 (designed binder)
chain: MGSWEEFEQRLWAIDDRLWALGGSEAELAFFEYEIAEFEMDLQWYKGKGNPEVEALFYEAHAINEELWAYRHN
B29: SEQ ID NO 645 (designed binder)
chain: MGSWFEFEERLNAISWRLHALGGSEAELAYFEEDIAWFEDDLQFYKGKGNPEVEALENEAYAIWEELDAYRHN
B30: SEQ ID NO 644 (designed binder)
chain: MGSWEEFFFRLEAIDDRLYALGGSEAELALFEEVIAYFEQDLQWYKGKGNPEVEALYVEAYAIQEELYAYRHN
B31: SEQ ID NO 642 (designed binder)
chain: MGSWYEFEDRLAAIEARLWALGGSEAELADFEEEIAYFEHGLQWYKGKGNPEVEALESEAMAIIDELHAYRHN
B32: SEQ ID NO 673 (designed binder)
chain: MGSWDEFDDRLEAIVDRLFALGGSEAELAMFEFEIAQFEHQLQYYKGKGNPEVEALRDEADAIWIELDAYRHN
B33: SEQ ID NO 635 (designed binder)
chain: MGSWYEFYWRLEAIEERLWALGGSEAELAEFEKAIATFEDQLQTYKGKGNPEVEALETEALAIHAELEAYRHN
B34: SEQ ID NO 647 (designed binder)
chain: MGSWAEFDDRLEAIEYRLHALGGSEAELAWFEEGIAGFEHALQSYKGKGNPEVEALETEAGAINEELWAYRHN
B35: SEQ ID NO 672 (designed binder)
chain: MGSWDEFWDRLDAIEDRLFALGGSEAELADFERVIAWFENDLQEYKGKGNPEVEALDNEADAIRIELHAYRHN
B36: SEQ ID NO 667 (designed binder)
chain: MGSWEEFDDRLDAIEHRLWALGGSEAELADFEGSIAAFESWLQVYKGKGNPEVEALEAEAEAIADELWAYRHN
B37: SEQ ID NO 652 (designed binder)
chain: MGSWVEFYNRLDAIENRLWALGGSEAELAFFEELIAQFEFALQDYKGKGNPEVEALEDEADAIWEELMAYRHN
B38: SEQ ID NO 675 (designed binder)
chain: MGSWFEFEWRLDAIENRLNALGGSEAELAWFEYHIAAFEDSLQHYKGKGNPEVEALEWEAHAIQSELQAYRHN
B39: SEQ ID NO 657 (designed binder)
chain: MGSWDEFHQRLAAIGDRLWALGGSEAELAYFEWEIATFEWDLQVYKGKGNPEVEALYFEATAIDEELMAYRHN
B40: SEQ ID NO 668 (designed binder)
chain: MGSWYEFADRLDAIMDRLVALGGSEAELAYFEWEIAAFEEFLQMYKGKGNPEVEALDEEAEAIKDELMAYRHN
B41: SEQ ID NO 643 (designed binder)
chain: MGSWWEFSWRLEAIETRLDALGGSEAELAFFEMDIAWFEQDLQLYKGKGNPEVEALEEEAYAIYEELEAYRHN

The binders below were run against T1, recombinant human CD123-Fc (assay: phage ELISA, A450 target/A450 IgG1-Fc).
Summary of the method: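 Phage were rescued in 96-well format with VCSM13 helper phage from individual phagemid colonies picked from panning output. Plates were coated with 1.3 microg/ml goat anti-human IgG1-Fc antibody, then 5 nM recombinant human target or IgG1-Fc, then 50 microl phage diluted 5× in ELISA blocking buffer. Binding was detected with HRP-conjugated anti-M13 antibody at 450 nm. The ELISA ratio is target over IgG1-Fc absorbance, averaged across all screened wells holding that clone.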

ELISA_avg [ratio]	Binder
4.3	B1
7.7	B2
6.5	B3
3.2	B4
3.2	B5
3.8	B6
5.1	B7
4.6	B8
3.4	B9
4.7	B10
4	B11
7.5	B12
6.5	B13
4	B14
3.7	B15
3.3	B16
6.6	B17
3	B18
5.6	B19
4.6	B20
3.1	B21

ELISA_avg [ratio]	Binder
4.2	B22
4.4	B23
8.9	B24
3	B25
16.6	B26
3.9	B27
5.7	B28
13	B29
3.2	B30
3.8	B31
5.6	B32
3.7	B33
5.8	B34
3.9	B35
4	B36
6.9	B37
3.3	B38
3.7	B39
3.3	B40
3.3	B41

Source: patent US20230125550A1 (ARCELLX, published 2023)
